Tests used:
[1] = biological target: PtuA of retron Ec78, wild type, His-Sumo tagged (E. coli ECONIH5); assay: SEC
[2] = biological target: PtuA-E396Q of retron Ec78 (ATPase-deficient mutant), as expressed from the Ec78 operon (E. coli ECONIH5); assay: cryo-EM structure
[3] = biological target: PtuA-Q361L of retron Ec78, His-Sumo tagged, co-expressed with PtuB without the retron (E. coli ECONIH5); assay: cryo-EM structure

Substance: PtuA of retron Ec78, wild type, His-Sumo tagged (enzyme)
- stoichiometry N [1]: 4

Substance: PtuA-E396Q of retron Ec78 (ATPase-deficient mutant), as expressed from the Ec78 operon (enzyme)
- stoichiometry N [2]: 4

Substance: PtuA-Q361L of retron Ec78, His-Sumo tagged, co-expressed with PtuB without the retron (enzyme)
- stoichiometry N [3]: 4

Substance: PtuB of retron Ec78 with C-terminal His-tag, as expressed from the Ec78 operon (enzyme)
- stoichiometry N (PtuB subunits for four PtuA subunits) [2]: 2

Substance: PtuB of retron Ec78, co-expressed with His-Sumo-PtuA from pRSF-Duet (enzyme)
- stoichiometry N (PtuB subunits for four PtuA subunits) [3]: 2

Substance: Reverse transcriptase of retron Ec78 (enzyme)
- stoichiometry N (RT for four PtuA subunits) [2]: 2
- stoichiometry N (RT–ncRNA–msDNA for four PtuA subunits) [2]: 1

— PMC12819146
